In patent publication US20180112008A1 (Memorial Sloan Kettering, published 2018):
Ends that are not written are not given here. * marks the point of attachment. GlcNAc2 = N-linked chitobiose, CC(=O)N[C@@H]1[C@@H](O)[C@H](O[C@@H]2O[C@H](CO)[C@@H](O)[C@H](O)[C@H]2NC(C)=O)[C@@H](CO)O[C@H]1*

Columns and labels:
MUC16^c114 (human) [1] = assay: FACS, SKOV3-c114
[2] = target: MUC16^c114 on SKOV3 cells with MGAT5 knock-down (human); assay: FACS, SKOV3-shMGAT5-c114
MUC16^c114 (human) [3] = assay: FACS, SKOV3 transfectant, goat anti-mouse IgG-PE
[4] = target: non-glycosylated 15-mer MUC16 peptide (human); assay: sandwich ELISA on 'MUC16 15mer'; Blank 0.021
MUC16 18mer [5] = assay: sandwich ELISA on 'MUC16 18mer'; Blank 0.032
[6] = target: GlcNAc2-15-mer glycopeptide, unconjugated (human); assay: sandwich ELISA on 'MUC16 15mer + GlcNAc2'; Blank 0.019
[7] = target: (GlcNAc2)2-18-mer glycopeptide, unconjugated (human); assay: sandwich ELISA on 'MUC16 18mer + GlcNAc2'; Blank 0.029
[8] = target: non-glycosylated 15-mer MUC16 peptide (human); assay: ELISA 12/24/13 (sups from time of freezing), neat, column 15
MUC16 18mer [9] = assay: ELISA 12/24/13 (sups from time of freezing), neat, column 18
[10] = target: GlcNAc2-15-mer glycopeptide, unconjugated (human); assay: ELISA 12/24/13 (sups from time of freezing), neat, column 15S
[11] = target: (GlcNAc2)2-18-mer glycopeptide, unconjugated (human); assay: ELISA 12/24/13 (sups from time of freezing), neat, column 18S
[12] = target: MUC16 unrelated peptide 18mer; assay: sandwich ELISA on 'MUC16 unrelated peptide 18mer'; Blank 0.013
[13] = target: MUC16 unrelated peptide 18mer+GlcNAc2; assay: sandwich ELISA on 'MUC16 unrelated 18mer + GlcNAc2'; Blank 0.014
MUC16^c114 (human) [14] = assay: FACS of transfected cells; vector control phrGFP 7.9; cell line not given
MUC16^c114 (human) [15] = assay: FACS of transfected cells; vector control phrGFP 3.7; cell line not given
MUC16^c114 (human) [16] = assay: FACS of transfected cells; vector control phrGFP 11.4; cell line not given
MUC16^c114-N2 = target: T1, MUC16^c114-N2 (human, chain 1 pos 1 and pos 30: N-glycosylated Asn (cell-made glycans), written N); assay: FACS, SKOV3-N24 mutc114
T1 construct: MUC16^c114 with Asn24 (Asn1800) changed to Ala, on SKOV3 cells; also called N24 mut c114; SKOV3-N24 mutc114; not shown: hrGFP of the phrGFP II-C vector, fused at the cytoplasmic carboxy-terminus
T1 chain: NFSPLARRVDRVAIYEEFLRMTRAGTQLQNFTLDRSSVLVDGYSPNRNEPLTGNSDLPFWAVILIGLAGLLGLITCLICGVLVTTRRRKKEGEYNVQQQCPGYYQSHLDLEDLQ

MUC16^c114-N1 = target: T2, MUC16^c114-N1 (human, chain 1 pos 24 and pos 30: N-glycosylated Asn (cell-made glycans), written N); assay: FACS, SKOV3 transfectant, goat anti-mouse IgG-PE
T2 construct: MUC16^c114 with Asn1 (Asn1777) changed to Ala, on SKOV3 cells; also called N1 mut c114; SKOV3 MUC16^c114-N1; not shown: hrGFP of the phrGFP II-C vector, fused at the cytoplasmic carboxy-terminus
T2 chain: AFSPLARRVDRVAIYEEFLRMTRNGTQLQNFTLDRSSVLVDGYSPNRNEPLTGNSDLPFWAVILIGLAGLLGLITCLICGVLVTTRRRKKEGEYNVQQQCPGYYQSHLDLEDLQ

MUC16^c114-N3 = target: T3, MUC16^c114-N3 (human, chain 1 pos 1 and pos 24: N-glycosylated Asn (cell-made glycans), written N); assay: FACS, SKOV3 transfectant, goat anti-mouse IgG-PE
T3 construct: MUC16^c114 with Asn30 (Asn1806) changed to Ala, on SKOV3 cells; also called N30 mut c114; SKOV3-N30 mutc114; not shown: hrGFP of the phrGFP II-C vector, fused at the cytoplasmic carboxy-terminus
T3 chain: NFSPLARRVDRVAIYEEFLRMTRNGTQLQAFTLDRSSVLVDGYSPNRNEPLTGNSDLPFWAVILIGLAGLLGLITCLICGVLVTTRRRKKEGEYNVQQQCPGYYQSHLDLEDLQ

MUC16^c114-N123 = target: T4, MUC16^c114-N123 (human, All three N-glycosylation sites (pos 1, 24, 30) are mutated to Ala; none is left in the ectodomain.); assay: FACS, SKOV3 transfectant, goat anti-mouse IgG-PE
T4 construct: MUC16^c114 with Asn1, Asn24 and Asn30 changed to Ala, on SKOV3 or 3T3 cells; also called N1-N24-N30 mut c114; SKOV3-N1-N24-N30mutc114; not shown: hrGFP of the phrGFP II-C vector, fused at the cytoplasmic carboxy-terminus
T4 chain: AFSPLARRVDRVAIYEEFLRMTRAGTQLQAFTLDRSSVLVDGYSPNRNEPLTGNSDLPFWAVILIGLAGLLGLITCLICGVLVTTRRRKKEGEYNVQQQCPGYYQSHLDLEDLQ

[17] = target: T5, MUC16 nonglycosylated peptide 2 (human); assay: sandwich ELISA on 'MUC16 Nonglycosylated Peptide2'; Blank 0.029
T5 construct: Peptide used to elicit the 4H11 antibody; also called nonglycosylated MUC16 peptide 2
T5 peptide: CTLDRSSVLVDGYSPNRNE

MUC16^c80 = target: T6, MUC16^c80; assay: FACS of transfected cells; vector control phrGFP 11.4; cell line not given
T6 construct: also called External Deletion
T6 single chain: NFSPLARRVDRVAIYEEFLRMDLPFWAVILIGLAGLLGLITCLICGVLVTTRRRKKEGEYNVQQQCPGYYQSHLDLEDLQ

MUC16^c86 = target: T7, MUC16^c86; assay: as above
T7 construct: also called Internal Deletion
T7 single chain: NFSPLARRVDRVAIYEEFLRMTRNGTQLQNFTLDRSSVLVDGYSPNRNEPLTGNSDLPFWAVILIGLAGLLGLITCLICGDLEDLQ

MUC16^c344 = target: T8, MUC16^c344 (human, N- and O-glycosylation sites ; chain 1 pos 231, 254 and 260 (N1, N24, N30 of c114): N-glycosylated Asn, written N; further N- and O-glycosylation sites in the tandem-repeat part); assay: as above
T8 construct: also called MUC16^c344-GFP; SKOV3-c344; not shown: hrGFP of the phrGFP II-C vector, fused at the cytoplasmic carboxy-terminus
T8 chain: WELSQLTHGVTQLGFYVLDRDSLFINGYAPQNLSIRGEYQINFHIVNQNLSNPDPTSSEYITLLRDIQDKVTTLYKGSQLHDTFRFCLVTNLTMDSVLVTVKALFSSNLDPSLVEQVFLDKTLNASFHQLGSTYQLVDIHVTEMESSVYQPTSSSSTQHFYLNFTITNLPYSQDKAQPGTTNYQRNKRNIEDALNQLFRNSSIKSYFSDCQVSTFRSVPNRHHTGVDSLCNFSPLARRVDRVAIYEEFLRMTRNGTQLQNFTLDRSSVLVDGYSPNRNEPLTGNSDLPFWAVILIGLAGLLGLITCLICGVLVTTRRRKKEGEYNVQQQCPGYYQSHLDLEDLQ

MUC16 18mer [18] = target: T9, MUC16 18mer (not fully specified); assay: ELISA during fusion screen, dilution 400, column 18
T9 construct: also called non-glycosylated 18-mer MUC16 peptide
T9 peptide: CTRNGTQLQNFTLDRSSV

[19] = target: T10, (GlcNAc2)2-18-mer glycopeptide, unconjugated (human); assay: ELISA during fusion screen, dilution 400, column 18S
T10 construct: Used in ELISA without KLH; also called 18-mer(chitobiose)2[C-T22-V38]; 18mer-chitobiose peptide
T10 peptide: Ac-CTRN(GlcNAc2)GTQLQN(GlcNAc2)FTLDRSSV-NH2

[20] = target: T11, non-glycosylated 15-mer MUC16 peptide (human); assay: ELISA 12/24/13 (sups from time of freezing), dilution 400, column 15
T11 construct: Same peptide as the GlcNAc2-15-mer without the glycan; also called unglycosylated 15-mer
T11 peptide: CGTQLQNFTLDRSSV

MUC16 18mer [21] = target: T9, MUC16 18mer; assay: ELISA 12/24/13 (sups from time of freezing), dilution 400, column 18
[22] = target: T12, GlcNAc2-15-mer glycopeptide, unconjugated (human); assay: ELISA 12/24/13 (sups from time of freezing), dilution 400, column 15S
T12 construct: Cys plus G25-V38 of MUC16^c114; Used in ELISA without KLH; also called 15-mer(chitobiose)[C-G25-V38]; 15mer-chitobiose peptide
T12 peptide: Ac-CGTQLQN(GlcNAc2)FTLDRSSV-NH2

[23] = target: T10, (GlcNAc2)2-18-mer glycopeptide, …; assay: ELISA 12/24/13 (sups from time of freezing), dilution 400, column 18S
[24] = target: T13, biotinylated chitobiose-conjugated 18-mer glycopeptide (human, also: biotinylated, site not given here); assay: BLI (Octet QK), biotinylated glycopeptide on streptavidin sensor, antibody 10 ug/mL, 1:1 model
T13 construct: Cys plus T22-V38 of MUC16^c114; The range is derived from T22-V38 and the statement that c114 is 1777-1890; also called (GlcNAc2)2-18-mer, biotinylated; 18-mer(chitobiose)2[C-T22-V38]
T13 peptide: Ac-CTRN(GlcNAc2)GTQLQN(GlcNAc2)FTLDRSSV-NH2
Description: Binding affinity was determined using ForeBio Octet QK. 5 μg/mL of biotinylated chitobiose-conjugated 18-mer glycopeptide was loaded onto a streptavidin biosensor. After washing off excess antigen, mouse antibodies were tested at 10 μg/mL for association and dissociation steps, respectively. Binding parameters were calculated using 1:1 binding site model, partial fit.

[25] = target: EGFR (endogenous, MUC16^c114-expressing 3T3 cells) (Mus musculus (Mouse), UniProt Q01279 25-1210); assay: co-precipitation from MUC16^c114-expressing 3T3 cells with MUC16-targeting antibodies, western blot
[26] = target: HER3 (endogenous, MUC16^c114-expressing 3T3 cells) (Mus musculus (Mouse), UniProt Q61526 20-1339); assay: as above
Chain of HER3 (endogenous, MUC16^c114-expressing 3T3 cells) (Q61526 20-1339 limits assumed): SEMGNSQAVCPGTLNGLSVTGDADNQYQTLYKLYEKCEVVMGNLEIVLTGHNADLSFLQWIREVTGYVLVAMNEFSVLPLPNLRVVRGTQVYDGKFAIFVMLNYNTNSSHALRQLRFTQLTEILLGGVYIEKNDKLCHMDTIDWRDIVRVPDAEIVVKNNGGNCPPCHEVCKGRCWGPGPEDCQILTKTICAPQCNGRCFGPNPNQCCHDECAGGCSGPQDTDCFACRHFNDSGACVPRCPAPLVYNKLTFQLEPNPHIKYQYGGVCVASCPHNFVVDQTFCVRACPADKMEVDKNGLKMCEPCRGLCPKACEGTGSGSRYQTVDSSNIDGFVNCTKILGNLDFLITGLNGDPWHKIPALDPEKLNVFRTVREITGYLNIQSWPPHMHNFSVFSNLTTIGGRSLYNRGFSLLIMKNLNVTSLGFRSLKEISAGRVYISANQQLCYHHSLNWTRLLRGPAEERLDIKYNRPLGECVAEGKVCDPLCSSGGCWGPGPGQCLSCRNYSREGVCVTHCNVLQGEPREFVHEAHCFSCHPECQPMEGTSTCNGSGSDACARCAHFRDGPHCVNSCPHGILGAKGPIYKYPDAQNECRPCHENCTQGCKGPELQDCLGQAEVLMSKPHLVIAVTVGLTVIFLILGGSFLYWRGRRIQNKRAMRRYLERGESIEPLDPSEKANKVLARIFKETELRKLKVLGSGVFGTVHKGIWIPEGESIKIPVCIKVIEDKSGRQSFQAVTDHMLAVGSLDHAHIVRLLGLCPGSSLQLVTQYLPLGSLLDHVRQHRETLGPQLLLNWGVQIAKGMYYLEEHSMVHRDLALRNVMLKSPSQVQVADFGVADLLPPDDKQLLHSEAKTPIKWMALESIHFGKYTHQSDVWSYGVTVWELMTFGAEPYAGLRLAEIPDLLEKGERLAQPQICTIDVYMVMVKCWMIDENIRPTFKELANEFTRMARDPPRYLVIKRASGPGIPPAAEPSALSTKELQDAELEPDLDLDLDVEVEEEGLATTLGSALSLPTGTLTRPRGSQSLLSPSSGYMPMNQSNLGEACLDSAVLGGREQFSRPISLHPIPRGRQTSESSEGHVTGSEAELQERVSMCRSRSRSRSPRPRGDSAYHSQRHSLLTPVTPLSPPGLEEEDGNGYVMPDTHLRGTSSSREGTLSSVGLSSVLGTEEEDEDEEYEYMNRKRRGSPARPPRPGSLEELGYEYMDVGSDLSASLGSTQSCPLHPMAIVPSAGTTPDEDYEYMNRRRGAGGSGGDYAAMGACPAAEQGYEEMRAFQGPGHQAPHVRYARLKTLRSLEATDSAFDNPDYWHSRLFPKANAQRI

Question: Which results are given for 4H11 (antibody)?
Answer: geometric mean phycoerythrin (PE) fluorescence (MUC16^c114 (human) [1]): 1120; geometric mean phycoerythrin (PE) fluorescence [2]: 2380; Mean % PE (MUC16^c114 (human) [3]): 85.7%; ELISA signal [4]: 0.049; ELISA signal (MUC16 18mer [5]): 0.076; ELISA signal [6]: 0.06; ELISA signal [7]: 0.063; ELISA signal [8]: 0.02; ELISA signal (MUC16 18mer [9]): 0.02; ELISA signal [10]: 0.02; ELISA signal [11]: 0.02; ELISA signal [12]: 0.045; ELISA signal [13]: 0.038; % 4H11-PE Positives (MUC16^c114 (human) [14]): 28.4%; % 4H11-PE Positives (MUC16^c114 (human) [15]): 19.3%; % 4H11-PE Positives (MUC16^c114 (human) [16]): 51.7%

B1: 4H11 (antibody, V domains shown)
VH: EVKLQESGGGFVKPGGSLKVSCAASGFTFSSYAMSWVRLSPEMRLEWVATISSAGGYIFYSDSVQGRFTISRDNAKNTLHLQMGSLRSGDTAMYYCARQGFGNYGDYYAMDYWGQGTTVTVSS
VL: DIELTQSPSSLAVSAGEKVTMSCKSSQSLLNSRTRKNQLAWYQQKPGQSPELLIYWASTRQSGVPDRFTGSGSGTDFTLTISSVQAEDLAVYYCQQSYNLLTFGPGTKLEVK
Question: Which “geometric mean phycoerythrin (PE) fluorescence” value (MUC16^c114-N2) does the source give for B1 here?
Answer: Its value is 2650.

Question: And the “Mean % PE” value (MUC16^c114-N1)?
Answer: Its value is 91.5%.

Question: What about the “Mean % PE” value (MUC16^c114-N3) of the same molecule?
Answer: The value was 15.6%.

Question: And the “Mean % PE” value (MUC16^c114-N123)?
Answer: Its value is 32.3%.

Question: What about the ELISA signal [17] of the same molecule?
Answer: Its ELISA signal is 2.14.

Question: And the “% 4H11-PE Positives” value (MUC16^c80)?
Answer: The value was 16.7%.

Question: And the “% 4H11-PE Positives” value (MUC16^c86)?
Answer: The value was 27.4%.

Question: What about the “% 4H11-PE Positives” value (MUC16^c344) of the same molecule?
Answer: Its value is 34.4%.

B2: 16C5.C1 (antibody, V domains shown)
VH: QVTLKESGPGILQPSQTLSLTCSFSGFSLNTLGMGVGWIRQPSGKGLEWLAHIWWDDDKYYYPALKSRLTISRDTSKNQVFLKIANVDTADTATYYCARIGTAQATDALDYWGQGTSVTVSS
VL: ELDMTQTPPSLSASVGETVRIRCLASEDIYSGISWYQQKPGKPPTLLIYGASNLESGVPPRFSGSGSGTDYTLTIGGVQAEDAATYYCLGGYSYSSTLTFGAGTNVEIK
notes: Mouse monoclonal from a hybridoma
Question: Which results are given for B2?
Answer: ELISA signal (MUC16 18mer [18]): 0.24; ELISA signal [19]: 0.36; ELISA signal [20]: 0.62; ELISA signal (MUC16 18mer [21]): 0.63; ELISA signal [22]: 0.23; ELISA signal [23]: 0.68; Kd [24]: 25.7 nM; koff [24]: 0.00172 s⁻¹

B3: MUC16^c114 (other)
chain: NFSPLARRVDRVAIYEEFLRMTRNGTQLQNFTLDRSSVLVDGYSPNRNEPLTGNSDLPFWAVILIGLAGLLGLITCLICGVLVTTRRRKKEGEYNVQQQCPGYYQSHLDLEDLQ
modifications: capable of N-glycosylation at Asn1, Asn24 and Asn30 ; chain 1 pos 1, 24, 30: Asn capable of N-glycosylation on the transfected cells, written N
notes: The forward primer adds Met-Val before Asn1; also called MUC16^c114-GFP; SKOV3 MUC16^c114; not shown: hrGFP of the phrGFP II-C vector fused at the cytoplasmic carboxy-terminus, with its short cloning linker
Question: Which results are given for B3?
Answer: binding result [25]: no binding; binding result [26]: no binding
